Test results taken from publication PMC6171530 (Nature chemical biology, 2018).

B1: His6-RNR-α (enzyme, human, UniProt P23921 1-792, looked up)
chain: MHVIKRDGRQERVMFDKITSRIQKLCYGLNMDFVDPAQITMKVIQGLYSGVTTVELDTLAAETAATLTTKHPDYAILAARIAVSNLHKETKKVFSDVMEDLYNYINPHNGKHSPMVAKSTLDIVLANKDRLNSAIIYDRDFSYNYFGFKTLERSYLLKINGKVAERPQHMLMRVSVGIHKEDIDAAIETYNLLSERWFTHASPTLFNAGTNRPQLSSCFLLSMKDDSIEGIYDTLKQCALISKSAGGIGVAVSCIRATGSYIAGTNGNSNGLVPMLRVYNNTARYVDQGGNKRPGAFAIYLEPWHLDIFEFLDLKKNTGKEEQRARDLFFALWIPDLFMKRVETNQDWSLMCPNECPGLDEVWGEEFEKLYASYEKQGRVRKVVKAQQLWYAIIESQTETGTPYMLYKDSCNRKSNQQNLGTIKCSNLCTEIVEYTSKDEVAVCNLASLALNMYVTSEHTYDFKKLAEVTKVVVRNLNKIIDINYYPVPEACLSNKRHRPIGIGVQGLADAFILMRYPFESAEAQLLNKQIFETIYYGALEASCDLAKEQGPYETYEGSPVSKGILQYDMWNVTPTDLWDWKVLKEKIAKYGIRNSLLIAPMPTASTAQILGNNESIEPYTSNIYTRRVLSGEFQIVNPHLLKDLTERGLWHEEMKNQIIACNGSIQSIPEIPDDLKQLYKTVWEISQKTVLKMAAERGAFIDQSQSLNIHIAEPNYGKLTSMHFYGWKQGLKTGMYYLRTRPAANPIQFTLNKEKLKDKEKVSKEEEEKERNTAAMVCSLENRDECLMCGS

Key:
[1] = target: the molecule itself; test: negative-stain electron microscopy
His6-RNR-α = target: B1; test: pull-down

| binding result (His6-RNR-α) | Binder | stoichiometry N [1] |
| --- | --- | --- |
|  | B1 | 6 |
| binds | His6-HA-HNH&APIM (domain or fragment, UniProt Q5FWF4 929-1079, looked up) NSWDSRFCSLKCQEEFWIRSNNSYLRAKVFETEHGVCQLCNVNAQELFLRLRDAPKSQRKNLLYATWTSKLPLEQLNEMIRNPGEGHFWQVDHIKPVYGGGGQCSLDNLQTLCTVCHKERTARQAKERSQVRRQSLASKHGSDITRFLVKK |  |
